# B1: Hairpin Ribozyme (parent)
# chain: GUCCUCUUUCACGUGCGCGUGAAAGAGAGAAGUGAACCAGAGAAACACACGUUGUGGUAUAUUACCUGGUA
# Variants of: B1
# Assay: self-cleavage, relative activity (ratio to wild type); higher = more cleavage; co-transcriptional
row,Variant,self-cleavage
1,A61U G68A,0.219
2,U62A A64U,0.197
3,U62A A64G,0.093
4,U55G U67C,0.181
5,G54C A71G,0.438
6,G57C U63C,0.272
7,U55A A71C,0.697
8,U55A A71G,0.14
9,G57C G69U,0.0905
10,G54C A59C,0.195
11,G57A C66A,0.215
12,G56C U62A,0.263
13,G56C G57C,0.173
14,G56C G57U,0.153
15,G56C A61U,0.177
16,U60C A71C,1.66
17,U60C A71G,1.08
18,U60C A71U,1.18
19,A61U U70A,0.175
20,G56A U63A,0.133
21,A61G A64U,0.202
22,U58C A64G,0.502
23,U58C A64C,0.178
24,U60G U70G,0.514

row,Variant,self-cleavage
1,U60A U70G,0.553
2,U62C A64U,0.187
3,U62C A64C,0.149
4,U58A A61G,0.27
5,U58A A61C,0.0874
6,U58A A61U,0.216
7,U55G A64U,0.158
8,U55G A64C,0.153
9,U58A U70C,0.728
10,U58A U70G,0.493
11,U58A U70A,0.588
12,G54U A61G,0.139
13,G54U A61U,0.268
14,G56C G68U,0.173
15,U55G G57C,0.126
16,G57A U70G,0.111
17,G57U A71U,0.223
18,G56A G68A,0.119
19,G56U U63G,0.0375
20,G56A A71G,0.245
21,G56A G57A,0.136
22,G56A G57C,0.128
23,U58C U70G,0.759
24,U58C U70A,0.897

row,Variant,self-cleavage
1,A61C G69A,0.159
2,A61C G69U,0.145
3,A59U A61G,0.166
4,U55C G56U,0.321
5,U55A A61G,0.156
6,U60C U62G,0.155
7,G57C U67A,0.257
8,U58C U62C,0.369
9,U58C U62G,0.242
10,U60A A71U,0.616
11,U60A A71C,1.24
12,U60G C66U,0.361
13,U60G C66A,0.0537
14,G54U C66U,0.211
15,G54U C66A,0.228
16,U60C C66A,0.31
17,U60C C66U,0.451
18,G57C C65A,0.0756
19,A61U U62G,0.0473
20,A61U U62C,0.197
21,U58G A61U,0.0693
22,G57A A59U,0.0919
23,A59G U60A,0.164
24,A59G U60G,0.311

row,Variant,self-cleavage
1,A59G U60C,0.238
2,U60C A61G,0.228
3,A59G C66A,0.228
4,U60A G68C,0.236
5,U60A G68U,0.189
6,U62A U70A,0.143
7,G56U U60A,0.219
8,G56U U60C,0.135
9,G56U U60G,0.231
10,G54C U67C,0.109
11,U55G U58A,0.199
12,U58A G69A,0.201
13,U58A G69C,0.246
14,U62C A71C,0.595
15,G57C U70A,0.184
16,G57C U70C,0.216
17,G54C C65A,0.194
18,A61C,0.214
19,A61G,0.183
20,A61U,0.213
21,G54U U62C,0.172
22,U55G U63G,0
23,U60G A61C,0.315
24,A61G G69A,0.16

row,Variant,self-cleavage
1,G54C G56A,0.116
2,G54C G56U,0.166
3,U58C C66U,0.546
4,U58C C66A,0.201
5,A59U G68C,0.0787
6,U60A C65A,0.807
7,G57U U67G,0.152
8,A59G U62C,0.201
9,U58A U62G,0.296
10,U55C A71C,0.596
11,U55C A71U,0.16
12,A59G U70G,0.161
13,A59G U70C,0.192
14,G56U U62G,0.104
15,U58C U60A,0.845
16,U58C U60C,1.19
17,A59G G68A,0.135
18,A59G G68U,0.235
19,U60G C65U,0.183
20,A59G A61U,0.141
21,A59G A61G,0.082
22,U55C U58G,0.175
23,U55C U58C,0.475
24,G54A U58A,0.453

row,Variant,self-cleavage
1,G54C A64U,0.155
2,U60C A64C,0.201
3,U60C A64U,0.183
4,U55G A71G,0.241
5,U60G G68U,0.296
6,A59U U67A,0.141
7,U62A C66A,0.12
8,G57C C66U,0.101
9,G54C U62C,0.108
10,G54C U62A,0.186
11,A61G A71C,0.308
12,A61G A71G,0.168
13,G56C U60A,0.106
14,G56C U60C,0.156
15,U55A A64C,0.13
16,A59G U67C,0.128
17,U55A A59G,0.163
18,U55A A59C,0.252
19,U58A U60C,0.715
20,G57C A64C,0.178
21,G54A U63C,0.216
22,U58G U70A,0.849
23,G54U,0.626
24,G54C,0.433

row,Variant,self-cleavage
1,G54C G68A,0.187
2,U62C U70A,0.194
3,U62C U70C,0.255
4,U58G U63A,0.149
5,G54C U55A,0.196
6,G54A U60G,0.204
7,G54A G68U,0.227
8,U62C U63G,0.228
9,U60A U63G,0.136
10,G54U G68C,0.212
11,G54U G68A,0.22
12,G56U A64U,0.173
13,G54C U63G,0.119
14,G54A G57U,0.27
15,G54A G57A,0.182
16,U55A C65G,0.19
17,A59C G68U,0.138
18,A59C G68A,0.124
19,U62C G68A,0.2
20,U62C G68C,0.223
21,U58G U62A,0.232
22,U58G U62C,0.187
23,A59U A71C,0.153

# From the RNAGym collection of RNA variant scans (doi:10.7554/elife.80360)
